# B1: Kinase non-catalytic C-lobe domain-containing protein 1 (Mus musculus), Q0KK55 (parent)
# chain: MQAMDPASRGFYEEDGKDLDFYDFEPLPTLPEDEENVSLADILSLRDRGLSEQEAWAVCLECSLSMRSVAHAAIFQTLCITPDTLAFNTSGNVCFMEQLSDDPEGAFVPPEFDLTGNTFEAHIYSLGATLKAALEYVPEPELEPKLSTDLEGLLSQMQAEDPRERPDLASIIALCEEKMQPVSSCRLCRSLSAIGRRVLSIESFGAFQELSENTWRGRPAPRNVGPKKMPGDLSTDPEALFPSKGLLQPPASRDAEQEAGQRPRAPSPKPLLSAPVRNGENPGQEGLADLVLDARCPLGELDRDNLRRSRLKKAQTFPRLLQESTETSTLCLSLNGSRNQLAISEFFPPDPRKLFLEGKNGLSGFKTQSKSRLWPEQEPGVQLDKTPGAGRNPHRSPGASGQLEASSPSQGSVEYKPSPSPVDAGDSDHEGHIPRSEEKIPEESRQPGSTATEQSLSLKDLLSKLGRPFREYELWALCLSCLSTLQTHKEHPAHLCLDNVLVAEDGTVFFGPPPANGAYNSLFLAPEVSEEKLVTEKASVYCVAAVLWTAAKFSVPRDHKLALPRRLKTLLLDMARRHASERPSAAEAIKVCSSYLLQRGMDSSKILAHLRASTCKVHPEEETIGLQNAFSVVELKSTTAPAPESSPGFLQVSNDTKLVAVPGPVPGLPPCCKEACELPAAFTSEATHFKPIVLAQDASVTRDQLALPSESNEKPKEGSGHLDREGTRKQAALELVEATDLKMSNQLSPGPELQGATPDPDGDSGSPSSATECSCPHGPALVTQQKGTSGTPSSPASSLPPEHRPDGEGPLGTTVLPGPTSASQGSRHPCKPPRGKAAASPSSPRGSDGHPEKPRPADRKLCPSSVDTSSPPKMTACPSLQEAMRLIQEEFAFDGYMDNGLEALIMGEYIYALKDLTFATFCGAISEKFCDLYWDEQLLKNLFKVVNGPASPSESTSEEPGSQPEHSPSRCSLSSKRPSLHGLGKEKPATTWGSGGPCSPTALSDIDSDTLSQGNFEVGFRSQKSIKVTREQQPEAEVGGQPGPSQDSTSHASDTVARLARSEDGGPAGSPGASDFQNCSPGWSSAFYEADCFGADVYNYVKDLERQKTNGHTELEAQSPELEQQLMIEKRNYRKTLKFYQKLLQKEKRNKGSEVRTMLSKLRGQLDEMKSKVQFLSLVKKYLQVMYAERWGLEPCALPVIVNIAAAPCDTLDFSPLDESSSLIFYNVNKHPGSGRQKKARILQAGTPLGLMAYLYSSDAFLEGYVQQFLYTFRYFCTPHDFLHFLLDRISSTLSRAHQDPTSTFTKIYRRSLCVLQAWVEDCYTVDFIRNAGLLGQLEDFISSKILPLDGTAEHLLALLEVGTERRADSASRGADLEDPKEAEEDTRPFNALCKRFSEDGITRKSFSWRLPRGNGLVLPHHKERQYTIASALPKPCFFEDFYGPYAKASEKGPYFLTEYSTNQLFTQLTLLQQELFQKCHPVHFLNSRALGVMDKSAAIPKASSSESLSAKTCSLFLPNYVQDKYLLQLLRNADDVSTWVAAEIVTSHTSKLQVNLLSKFLLIAKSCYEQRNFATAMQILGGLEHLAVRQSPAWRILPAKIAEVMEELKAVEVFLKSDSLCLMEGRRFRAQPTLPSAHLLAMHIQQLETGGFTMTNGAHRWSKLRNIAKVASQVHAFQENPYTFSPDPKLQAHLKQRIARFSGADVSILAADNRANFHQIPGEKHSRKIQDKLRRMKATFQ
# Variants of: B1
# Conditions: with mtap2_mouse Map2, P20357
# Chain of mtap2_mouse Map2, P20357 (P20357 whole entry): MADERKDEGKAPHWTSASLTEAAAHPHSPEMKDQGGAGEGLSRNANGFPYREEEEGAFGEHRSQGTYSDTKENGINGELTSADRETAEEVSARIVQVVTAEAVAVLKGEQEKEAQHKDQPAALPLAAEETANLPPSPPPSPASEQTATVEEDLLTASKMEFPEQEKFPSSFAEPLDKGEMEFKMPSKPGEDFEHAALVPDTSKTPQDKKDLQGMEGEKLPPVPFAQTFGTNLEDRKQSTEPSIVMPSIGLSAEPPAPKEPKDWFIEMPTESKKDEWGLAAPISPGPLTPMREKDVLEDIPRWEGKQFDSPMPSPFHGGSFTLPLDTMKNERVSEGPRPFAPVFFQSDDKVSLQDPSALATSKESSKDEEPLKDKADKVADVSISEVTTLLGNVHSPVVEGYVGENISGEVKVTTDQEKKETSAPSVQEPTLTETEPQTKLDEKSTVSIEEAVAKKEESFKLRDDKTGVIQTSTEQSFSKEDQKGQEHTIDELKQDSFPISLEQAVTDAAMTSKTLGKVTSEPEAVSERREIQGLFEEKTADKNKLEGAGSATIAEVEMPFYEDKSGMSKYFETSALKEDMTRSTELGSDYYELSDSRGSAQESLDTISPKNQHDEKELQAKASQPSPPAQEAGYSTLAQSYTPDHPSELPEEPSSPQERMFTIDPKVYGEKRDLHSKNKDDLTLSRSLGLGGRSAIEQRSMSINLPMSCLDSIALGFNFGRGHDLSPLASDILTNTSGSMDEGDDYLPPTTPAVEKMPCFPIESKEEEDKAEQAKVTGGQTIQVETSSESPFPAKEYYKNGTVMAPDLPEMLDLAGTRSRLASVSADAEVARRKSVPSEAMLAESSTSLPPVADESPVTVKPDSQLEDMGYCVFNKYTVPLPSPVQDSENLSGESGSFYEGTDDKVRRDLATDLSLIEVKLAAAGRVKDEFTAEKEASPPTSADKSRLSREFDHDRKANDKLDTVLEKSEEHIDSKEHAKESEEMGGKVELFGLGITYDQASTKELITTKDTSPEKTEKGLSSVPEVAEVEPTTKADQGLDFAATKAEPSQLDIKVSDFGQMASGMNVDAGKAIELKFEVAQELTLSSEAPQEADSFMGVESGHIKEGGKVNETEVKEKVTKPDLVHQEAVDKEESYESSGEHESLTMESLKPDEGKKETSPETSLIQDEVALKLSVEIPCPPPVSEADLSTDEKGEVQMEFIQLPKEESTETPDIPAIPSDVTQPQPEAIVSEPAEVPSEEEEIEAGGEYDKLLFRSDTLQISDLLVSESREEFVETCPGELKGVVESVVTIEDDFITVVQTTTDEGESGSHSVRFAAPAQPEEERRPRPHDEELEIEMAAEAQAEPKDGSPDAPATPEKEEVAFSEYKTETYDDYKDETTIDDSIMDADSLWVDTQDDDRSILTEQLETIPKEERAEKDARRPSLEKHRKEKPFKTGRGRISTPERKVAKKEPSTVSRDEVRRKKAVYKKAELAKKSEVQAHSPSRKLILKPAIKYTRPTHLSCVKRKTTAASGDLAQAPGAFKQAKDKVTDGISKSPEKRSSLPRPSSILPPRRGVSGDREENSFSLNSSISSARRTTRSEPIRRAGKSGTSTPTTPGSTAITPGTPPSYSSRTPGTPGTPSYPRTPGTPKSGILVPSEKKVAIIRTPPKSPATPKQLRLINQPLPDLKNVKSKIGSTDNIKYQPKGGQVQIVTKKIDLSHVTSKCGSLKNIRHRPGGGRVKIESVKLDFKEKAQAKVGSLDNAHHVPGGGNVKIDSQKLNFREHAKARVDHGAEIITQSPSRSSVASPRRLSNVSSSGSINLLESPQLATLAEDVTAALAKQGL
row,effect of a mutation on the interaction,Variant
1,disrupting interaction,L477A

# Variants of: B1
# Conditions: with mtap2_mouse Map2, P20357
# Remark: another data set of the same source
row,effect of a mutation on the interaction,Variant
1,disrupting interaction,L461A

# Variants of: B1
# Conditions: with mtap2_mouse Map2, P20357
# Remark: another data set of the same source
row,effect of a mutation on the interaction,Variant
1,disrupting interaction,L474A

# From IntAct's records for PubMed 21385318
